Measurements as given in article PMC5020499, “Crystal structures of archaeal 2-oxoacid:ferredoxin oxidoreductases from Sulfolobus tokodaii” (Scientific Reports, 2016).

Assays:
[1] = molecular target: the molecule itself; assay: crystal structure; StOFOR1 co-crystallised with 50 mM 2-oxobutyrate and 1 mM CoA; sitting drop, 25 °C, 15% PEG3350, 0.1 M Tris-HCl pH 8.5, 0.1 M NaBr; 2.5 Å; two protomers in the asymmetric unit
[2] = molecular target: T1, StOFOR2 a-subunit (STK_24350) (Sulfolobus tokodaii, UniProt Q96XT2 1-628); assay: crystal structure; StOFOR2 ligand-free (2.1 Å) and soaked with 50 mM pyruvate (2.2 Å); sitting drop, 20 °C, 0.7 M ammonium tartrate dibasic, 0.1 M Tris-HCl pH 8.5; one protomer in the asymmetric unit; conditions: both partners purified
T1 construct: a-subunit of 2-oxoacid:ferredoxin oxidoreductase StOFOR2, STK_24350, Sulfolobus tokodaii; gene amplified from genomic DNA with primers from the start codon to the stop codon; domains III (1a-228a), I (228a-500a), II (500a-627/628a); stk_23000 in pOFORAB was replaced with stk_24350; No tag is mentioned; A selenomethionine-labelled form (E. coli B834 (DE3)) was used for phasing only; also called …
T1 sequence (looked up): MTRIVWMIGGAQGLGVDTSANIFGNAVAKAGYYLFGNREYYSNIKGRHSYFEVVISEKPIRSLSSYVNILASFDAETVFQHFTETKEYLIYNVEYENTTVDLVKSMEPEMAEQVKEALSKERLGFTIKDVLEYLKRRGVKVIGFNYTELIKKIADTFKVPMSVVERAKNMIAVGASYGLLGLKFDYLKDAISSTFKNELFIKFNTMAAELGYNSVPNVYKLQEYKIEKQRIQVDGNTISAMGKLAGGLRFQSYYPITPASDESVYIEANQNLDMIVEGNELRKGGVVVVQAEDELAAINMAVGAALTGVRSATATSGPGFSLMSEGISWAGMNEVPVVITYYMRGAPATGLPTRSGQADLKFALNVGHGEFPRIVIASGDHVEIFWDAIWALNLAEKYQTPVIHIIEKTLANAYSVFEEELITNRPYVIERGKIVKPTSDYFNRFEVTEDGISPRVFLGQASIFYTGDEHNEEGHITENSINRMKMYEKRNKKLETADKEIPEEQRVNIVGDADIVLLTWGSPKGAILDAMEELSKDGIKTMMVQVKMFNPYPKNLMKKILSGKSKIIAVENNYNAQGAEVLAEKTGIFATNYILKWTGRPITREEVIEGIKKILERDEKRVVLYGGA

[3] = molecular target: the molecule itself; assay: as above

B1: StOFOR1 protomer (heterodimer of a-subunit STK_23000 and b-subunit STK_22980) (complex, Sulfolobus tokodaii strain 7)
chain 1: MRLSWVIGGAQGTGIDTAANIFGNAVASAGYYIYGNREYYSNIKGRHSYFSLTISDKRVRSNTQKIDILVSFDAETVFQHFYDVKDILIYNKAVETTKIDAVQSMEPELAERIKDFLTKQGYETTVKGALEYASKNNVTLIPVNYDEIAKKVADEMKVPLSVTERVKNIVGITISYKLLGLDVNYLIEAINSTFKQDLYRKMNELAVKDSYDIVESRYNLKPSSKERRRFWLDGNTAVAIGKIYGGVRFQSYYPITPASDESVYIEAHQDVLMEDPITGDKKKGTIVVVQAEDELAAINMAIGAALTGVRAATATSGPGFSLMVEGLGWAGMNEVPVVITYYIRGGPSTGLPTRTAQSDLIFPIFAGHGEFPKIVLASGDHAEAFKDAIWALNLAEKYQTPVIHLVEKTLANSYSTIPYEELELDKLKAERGKIVESGDISYKRFKFTEDGISPRAFLGKATMYYTGDEHNEEGHISEDVVNRTMMYEKRMKKLEVADKEIPEESRVKIYGDLNSRNLIITWGSPTGVLRDILEESNFDFTLLQIRMFSPFPKNLVSKLMEGRDKIITVEGNYLAQTSLLVKMYTGKDVTNSILKWNGRPFLRDELEEALIKVIKDGEKRVVLNGGI
chain 2: PQWNDWCPGCGNFGILNAEQQAIVELGVDTKNVVVVSGIGCSGKIPHFFRTPISGVHTLHGRAIAFATGIKLSNPDLVVIVNGGDGDLLGIGAGHFVAAGRRNVDMVVILHDNGVYGLTKGQASPTLKRGEKPKSLPRPNINDAVNPIALAISSGYTFVARGYAYDVKHLKELIKSAIKHKGLALIDVLQPCPTYNDINTKEWYDKRIYKLDTLPDWDPVVKKPEEVNEKIKRAIDKSLEWGDRIPIGIFYQNELVPSYEERIKANSPAYLDYTPAKQLIEKEGKLTTIIDPLLKEREVD
notes: a-subunit of StOFOR1, STK_23000, Sulfolobus tokodaii strain 7, 70 kDa; as the chain of m1; b-subunit of StOFOR1, STK_22980, Sulfolobus tokodaii strain 7, 34 kDa; as the chain of m2; One protomer is the pair of a- and b-subunits that holds one TPP; Two protomers form the (ab)2 enzyme; Cofactors: TPP, Mg2+, [4Fe-4S]; also called STK_23000/STK_22980; source: E. coli C43 (DE3), both subunits …
[1]
  stoichiometry N: 2

B2: StOFOR2 b-subunit (STK_24330) (natural protein, Sulfolobus tokodaii, UniProt Q96XT4 1-304, looked up)
chain: MVERKPVFVDWCPGCGDFGILRAEEMAIRELGINPKSVVIVSGIGCSGKIPHFMNLPISGVHTLHGRSIAFATGIKLSNPSLEVIVNVGDGDGLGIGMGHFVHLGRRNIDIAVLVHNNGVYGLTKGQASPTLHRGEKTKSLPKPNIMDAVNPLAVALAAGYTFVARGYAYDVMHLKELIKKAILHKGSALVDILQPCPTYNDINTKEWYDKRVYKLDNVPGWDPVVRKEEEAQKKFEQAIMKSYEWGEKIPIGIFYQNELVPTFEDRLTSNIPNYREYYPAKQQIEINGISTTKIDELIKAKRI
notes: b-subunit of 2-oxoacid:ferredoxin oxidoreductase StOFOR2, STK_24330, Sulfolobus tokodaii; gene amplified from genomic DNA with primers from the start codon to the stop codon; domain VI (1b-305b); stk_22980 in pOFORAB was replaced with stk_24330; No tag is mentioned; Holds the [4Fe-4S] cluster; also called b-subunit of StOFOR2; source: E. coli C43 (DE3), expressed with the a-subunit, purified …
[2]
  binding result: binds

B3: StOFOR2 protomer (heterodimer of a-subunit STK_24350 and b-subunit STK_24330) (complex, Sulfolobus tokodaii)
chain 1: MTRIVWMIGGAQGLGVDTSANIFGNAVAKAGYYLFGNREYYSNIKGRHSYFEVVISEKPIRSLSSYVNILASFDAETVFQHFTETKEYLIYNVEYENTTVDLVKSMEPEMAEQVKEALSKERLGFTIKDVLEYLKRRGVKVIGFNYTELIKKIADTFKVPMSVVERAKNMIAVGASYGLLGLKFDYLKDAISSTFKNELFIKFNTMAAELGYNSVPNVYKLQEYKIEKQRIQVDGNTISAMGKLAGGLRFQSYYPITPASDESVYIEANQNLDMIVEGNELRKGGVVVVQAEDELAAINMAVGAALTGVRSATATSGPGFSLMSEGISWAGMNEVPVVITYYMRGAPATGLPTRSGQADLKFALNVGHGEFPRIVIASGDHVEIFWDAIWALNLAEKYQTPVIHIIEKTLANAYSVFEEELITNRPYVIERGKIVKPTSDYFNRFEVTEDGISPRVFLGQASIFYTGDEHNEEGHITENSINRMKMYEKRNKKLETADKEIPEEQRVNIVGDADIVLLTWGSPKGAILDAMEELSKDGIKTMMVQVKMFNPYPKNLMKKILSGKSKIIAVENNYNAQGAEVLAEKTGIFATNYILKWTGRPITREEVIEGIKKILERDEKRVVLYGGA
chain 2: MVERKPVFVDWCPGCGDFGILRAEEMAIRELGINPKSVVIVSGIGCSGKIPHFMNLPISGVHTLHGRSIAFATGIKLSNPSLEVIVNVGDGDGLGIGMGHFVHLGRRNIDIAVLVHNNGVYGLTKGQASPTLHRGEKTKSLPKPNIMDAVNPLAVALAAGYTFVARGYAYDVMHLKELIKKAILHKGSALVDILQPCPTYNDINTKEWYDKRVYKLDNVPGWDPVVRKEEEAQKKFEQAIMKSYEWGEKIPIGIFYQNELVPTFEDRLTSNIPNYREYYPAKQQIEINGISTTKIDELIKAKRI
notes: a-subunit of StOFOR2, STK_24350, Sulfolobus tokodaii; primers from the start codon to the stop codon; as the chain of m3; b-subunit of StOFOR2, STK_24330, Sulfolobus tokodaii; as the chain of m4; One protomer is the pair of a- and b-subunits that holds one TPP; Two crystallographically identical protomers form the (ab)2 enzyme; Cofactors: TPP, Mg2+, [4Fe-4S]; also called STK_24350/STK_24330; …
[3]
  stoichiometry N: 2
